Reference: the supplement of paper PMC11316812
± gives the standard deviation of the averaged measurements.

How the values were obtained:
[1] = test system: hTERT-HMEC; test: percentage of EdU-negative (G0-arrested) nuclei per well, 72 h; higher = more G0 arrest; settings: reference: sequence is the full UniProt precursor, the tested protein was the secreted form or ectodomain
[2] = test system: MCF7; test: as above; settings: reference: sequence is the full UniProt precursor, the tested protein was the secreted form or ectodomain
[3] = protein concentration 0.0208571 µM
[4] = protein concentration 0.208571 µM
[5] = protein concentration 0.0225 µM
[6] = protein concentration 0.0294286 µM
[7] = protein concentration 0.294286 µM
[8] = protein concentration 0.03125 µM
[9] = protein concentration 0.3125 µM
[10] = protein concentration 0.0294275 µM
[11] = protein concentration 0.294275 µM
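Also: secreted proteins added to cultured cells, EdU pulse at the end, nuclei found by Hoechst imaging, EdU status from nuclear versus surrounding ring intensity ratio, PBS as neutral control.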

Sequence	percentage of EdU-negative [1, 5] [%]	percentage of EdU-negative ([1]; protein concentration 0.225 µM) [%]	percentage of EdU-negative [2, 5] [%]	percentage of EdU-negative ([2]; protein concentration 0.225 µM) [%]	other results
MGKNKLLHPSLVLLLLVLLPTDASVSGKPQYMVLVPSLLHTETTEKGCVLLSYLNETVTVSASLESVRGNRSLFTDLEAENDVLHCVAFAVPKSSSNEEVMFLTVQVKGPTQEFKKRTTVMVKNEDSLVFVQTDKSIYKPGQTVKFRVVSMDENFHPLNELIPLVYIQDPKGNRIAQWQSFQLEGGLKQFSFPLSSEPFQGSYKVVVQKKSGGRTEHPFTVEEFVLPKFEVQVTVPKIITILEEEMNVSVCGLYTYGKPVPGHVTVSICRKYSDASDCHGEDSQAFCEKFSGQLNSHGCFYQQVKTKVFQLKRKEYEMKLHTEAQIQEEGTVVELTGRQSSEITRTITKLSFVKVDSHFRQGIPFFGQVRLVDGKGVPIPNKVIFIRGNEANYYSNATTDEHGLVQFSINTTNVMGTSLTVRVNYKDRSPCYGYQWVSEEHEEAHHTAYLVFSPSKSFVHLEPMSHELPCGHTQTVQAHYILNGGTLLGLKKLSFYYLIMAKGGIVRTGTHGLLVKQEDMKGHFSISIPVKSDIAPVARLLIYAVLPTGDVIGDSAKYDVENCLANKVDLSFSPSQSLPASHAHLRVTAAPQSVCALRAVDQSVLLMKPDAELSASSVYNLLPEKDLTGFPGPLNDQDNEDCINRHNVYINGITYTPVSSTNEKDMYSFLEDMGLKAFTNSKIRKPKMCPQLQQYEMHGPEGLRVGFYESDVMGRGHARLVHVEEPHTETVRKYFPETWIWDLVVVNSAGVAEVGVTVPDTITEWKAGAFCLSEDAGLGISSTASLRAFQPFFVELTMPYSVIRGEAFTLKATVLNYLPKCIRVSVQLEASPAFLAVPVEKEQAPHCICANGRQTVSWAVTPKSLGNVNFTVSAEALESQELCGTEVPSVPEHGRKDTVIKPLLVEPEGLEKETTFNSLLCPSGGEVSEELSLKLPPNVVEESARASVSVLGDILGSAMQNTQNLLQMPYGCGEQNMVLFAPNIYVLDYLNETQQLTPEIKSKAIGYLNTGYQRQLNYKHYDGSYSTFGERYGRNQGNTWLTAFVLKTFAQARAYIFIDEAHITQALIWLSQRQKDNGCFRSSGSLLNNAIKGGVEDEVTLSAYITIALLEIPLTVTHPVVRNALFCLESAWKTAQEGDHGSHVYTKALLAYAFALAGNQDKRKEVLKSLNEEAVKKDNSVHWERPQKPKAPVGHFYEPQAPSAEVEMTSYVLLAYLTAQPAPTSEDLTSATNIVKWITKQQNAQGGFSSTQDTVVALHALSKYGAATFTRTGKAAQVTIQSSGTFSSKFQVDNNNRLLLQQVSLPELPGEYSMKVTGEGCVYLQTSLKYNILPEKEEFPFALGVQTLPQTCDEPKAHTSFQISLSVSYTGSRSASNMAIVDVKMVSGFIPLKPTVKMLERSNHVSRTEVSSNHVLIYLDKVSNQTLSLFFTVLQDVPVRDLKPAIVKVYDYYETDEFAIAEYNAPCSKDLGNA					percentage of EdU-negative [1, 3]: 4.57 ± 0.3%; percentage of EdU-negative [1, 4]: 5.37 ± 0.84%; percentage of EdU-negative [2, 3]: 23 ± 0.6%; percentage of EdU-negative [2, 4]: 27.8 ± 2.3%
MGKGDPKKPRGKMSSYAFFVQTCREEHKKKHPDASVNFSEFSKKCSERWKTMSAKEKGKFEDMAKADKARYEREMKTYIPPKGETKKKFKDPNAPKRPPSAFFLFCSEYRPKIKGEHPGLSIGDVAKKLGEMWNNTAADDKQPYEKKAAKLKEKYEKDIAAYRAKGKPDAAKKGVVKAEKSKKKKEEEEDEEDEEDEEEEEDEEDEDEEEDDDDE	5.16 ± 0.5	5.64 ± 0.066	23.1 ± 4.2	24.5 ± 0.87	
MASPGCLLCVLGLLLCGAASLELSRPHGDTAKKPIIGILMQKCRNKVMKNYGRYYIAASYVKYLESAGARVVPVRLDLTEKDYEILFKSINGILFPGGSVDLRRSDYAKVAKIFYNLSIQSFDDGDYFPVWGTCLGFEELSLLISGECLLTATDTVDVAMPLNFTGGQLHSRMFQNFPTELLLSLAVEPLTANFHKWSLSVKNFTMNEKLKKFFNVLTTNTDGKIEFISTMEGYKYPVYGVQWHPEKAPYEWKNLDGISHAPNAVKTAFYLAEFFVNEARKNNHHFKSESEEEKALIYQFSPIYTGNISSFQQCYIFD					percentage of EdU-negative [1, 6]: 4.45 ± 0.47%; percentage of EdU-negative [1, 7]: 4.7 ± 0.28%; percentage of EdU-negative [2, 6]: 25 ± 0.49%; percentage of EdU-negative [2, 7]: 25.9 ± 2.2%
MLPRVGCPALPLPPPPLLPLLLLLLGASGGGGGARAEVLFRCPPCTPERLAACGPPPVAPPAAVAAVAGGARMPCAELVREPGCGCCSVCARLEGEACGVYTPRCGQGLRCYPHPGSELPLQALVMGEGTCEKRRDAEYGASPEQVADNGDDHSEGGLVENHVDSTMNMLGGGGSAGRKPLKSGMKELAVFREKVTEQHRQMGKGGKHHLGLEEPKKLRPPPARTPCQQELDQVLERISTMRLPDERGPLEHLYSLHIPNCDKHGLYNLKQCKMSLNGQRGECWCVNPNTGKLIQGAPTIRGDPECHLFYNEQQEARGVHTQRMQ					percentage of EdU-negative [1, 8]: 4.88 ± 1%; percentage of EdU-negative [1, 9]: 6.96 ± 0.2%; percentage of EdU-negative [2, 8]: 27.7 ± 2.4%; percentage of EdU-negative [2, 9]: 31.1 ± 3.1%
MARRSRHRLLLLLLRYLVVALGYHKAYGFSAPKDQQVVTAVEYQEAILACKTPKKTVSSRLEWKKLGRSVSFVYYQQTLQGDFKNRAEMIDFNIRIKNVTRSDAGKYRCEVSAPSEQGQNLEEDTVTLEVLVAPAVPSCEVPSSALSGTVVELRCQDKEGNPAPEYTWFKDGIRLLENPRLGSQSTNSSYTMNTKTGTLQFNTVSKLDTGEYSCEARNSVGYRRCPGKRMQVDDLNISGIIAAVVVVALVISVCGLGVCYAQRKGYFSKETSFQKSNSSSKATTMSENDFKHTKSFII	5.13 ± 0.27	4.52 ± 0.093	24.2 ± 0.62	25.4 ± 2.1	
MERPSLRALLLGAAGLLLLLLPLSSSSSSDTCGPCEPASCPPLPPLGCLLGETRDACGCCPMCARGEGEPCGGGGAGRGYCAPGMECVKSRKRRKGKAGAAAGGPGVSGVCVCKSRYPVCGSDGTTYPSGCQLRAASQRAESRGEKAITQVSKGTCEQGPSIVTPPKDIWNVTGAQVYLSCEVIGIPTPVLIWNKVKRGHYGVQRTELLPGDRDNLAIQTRGGPEKHEVTGWVLVSPLSKEDAGEYECHASNSQGQASASAKITVVDALHEIPVKKGEGAEL					percentage of EdU-negative [1, 10]: 4.88 ± 0.84%; percentage of EdU-negative [1, 11]: 5.65 ± 0.3%; percentage of EdU-negative [2, 10]: 25.4 ± 0.77%; percentage of EdU-negative [2, 11]: 26.5 ± 1.5%
MQLPLALCLVCLLVHTAFRVVEGQGWQAFKNDATEIIPELGEYPEPPPELENNKTMNRAENGGRPPHHPFETKDVSEYSCRELHFTRYVTDGPCRSAKPVTELVCSGQCGPARLLPNAIGRGKWWRPSGPDFRCIPDRYRAQRVQLLCPGGEAPRARKVRLVASCKCKRLTRFHNQSELKDFGTEAARPQKGRKPRPRARSAKANQAELENAY [Q9BQB4]	5.07 ± 1.1	18.6 ± 2.6	28.1 ± 1.4	34 ± 2	
MALRRLGAALLLLPLLAAVEETLMDSTTATAELGWMVHPPSGWEEVSGYDENMNTIRTYQVCNVFESSQNNWLRTKFIRRRGAHRIHVEMKFSVRDCSSIPSVPGSCKETFNLYYYEADFDSATKTFPNWMENPWVKVDTIAADESFSQVDLGGRVMKINTEVRSFGPVSRSGFYLAFQDYGGCMSLIAVRVFYRKCPRIIQNGAIFQETLSGAESTSLVAARGSCIANAEEVDVPIKLYCNGDGEWLVPIGRCMCKAGFEAVENGTVCRGCPSGTFKANQGDEACTHCPINSRTTSEGATNCVCRNGYYRADLDPLDMPCTTIPSAPQAVISSVNETSLMLEWTPPRDSGGREDLVYNIICKSCGSGRGACTRCGDNVQYAPRQLGLTEPRIYISDLLAHTQYTFEIQAVNGVTDQSPFSPQFASVNITTNQAAPSAVSIMHQVSRTVDSITLSWSQPDQPNGVILDYELQYYEKELSEYNATAIKSPTNTVTVQGLKAGAIYVFQVRARTVAGYGRYSGKMYFQTMTEAEYQTSIQEKLPLIIGSSAAGLVFLIAVVVIAIVCNRRGFERADSEYTDKLQHYTSGHMTPGMKIYIDPFTYEDPNEAVREFAKEIDISCVKIEQVIGAGEFGEVCSGHLKLPGKREIFVAIKTLKSGYTEKQRRDFLSEASIMGQFDHPNVIHLEGVVTKSTPVMIITEFMENGSLDSFLRQNDGQFTVIQLVGMLRGIAAGMKYLADMNYVHRDLAARNILVNSNLVCKVSDFGLSRFLEDDTSDPTYTSALGGKIPIRWTAPEAIQYRKFTSASDVWSYGIVMWEVMSYGERPYWDMTNQDVINAIEQDYRLPPPMDCPSALHQLMLDCWQKDRNHRPKFGQIVNTLDKMIRNPNSLKAMAPLSSGINLPLLDRTIPDYTSFNTVDEWLEAIKMGQYKESFANAGFTSFDVVSQMMMEDILRVGVTLAGHQKKILNSIQVMRAQMNQIQSVEGQPLARRPRATGRTKRCQPRDVTKKTCNSNDGKKKGMGKKKTDPGRGREIQGIFFKEDSHKESNDCSCGG [Q6NVW1]	5.5 ± 0.22	8.19 ± 1	25.8 ± 2.3	26.5 ± 1	
MRGPSGALWLLLALRTVLGGMEVRWCATSDPEQHKCGNMSEAFREAGIQPSLLCVRGTSADHCVQLIAAQEADAITLDGGAIYEAGKEHGLKPVVGEVYDQEVGTSYYAVAVVRRSSHVTIDTLKGVKSCHTGINRTVGWNVPVGYLVESGRLSVMGCDVLKAVSDYFGGSCVPGAGETSYSESLCRLCRGDSSGEGVCDKSPLERYYDYSGAFRCLAEGAGDVAFVKHSTVLENTDGKTLPSWGQALLSQDFELLCRDGSRADVTEWRQCHLARVPAHAVVVRADTDGGLIFRLLNEGQRLFSHEGSSFQMFSSEAYGQKDLLFKDSTSELVPIATQTYEAWLGHEYLHAMKGLLCDPNRLPPYLRWCVLSTPEIQKCGDMAVAFRRQRLKPEIQCVSAKSPQHCMERIQAEQVDAVTLSGEDIYTAGKTYGLVPAAGEHYAPEDSSNSYYVVAVVRRDSSHAFTLDELRGKRSCHAGFGSPAGWDVPVGALIQRGFIRPKDCDVLTAVSEFFNASCVPVNNPKNYPSSLCALCVGDEQGRNKCVGNSQERYYGYRGAFRCLVENAGDVAFVRHTTVFDNTNGHNSEPWAAELRSEDYELLCPNGARAEVSQFAACNLAQIPPHAVMVRPDTNIFTVYGLLDKAQDLFGDDHNKNGFKMFDSSNYHGQDLLFKDATVRAVPVGEKTTYRGWLGLDYVAALEGMSSQQCSGAAAPAPGAPLLPLLLPALAARLLPPAL	6.116 ± 0.02	26.6 ± 0.69	26.1 ± 0.62	27.8 ± 1.6	
